# Measured values published in US20240398929A1.
# Key:
# [1] = target: GP[change] with 8D insertion after residue A309 (Ebola virus)
# [2] = target: GP[change] with 12D insertion after residue A309 (Ebola virus)
substance,measurement,setting,value
mAb114 (antibody),fold increase in binding against WT-GPΔmucin,[1],2 fold
same,fold increase in binding against WT-GPΔmucin,[2],2 fold
